# Source: patent US20210292416A1 (Eli Lilly, published 2021)
# B1: Antibody p-11444 (the parental antibody of the anti-PD1 arm of Antibody A) (antibody, V domains shown)
# VH: QVQLVQSGAEVKKPGSSVKVSCKASGGTFSSYAISWVRQAPGQGLEWMGLIIPMFDTAGYAQKFQGRVAITVDESTSTAYMELSSLRSEDTAVYYCARAEHSSTGTFDYWGQGTLVTVSS
# VL: DIQMTQSPSSVSASVGDRVTITCRASQGISSWLAWYQQKPGKAPKLLISAASSLQSGVPSRFSGSGSGTDFTLTISSLQPEDFATYYCQQANHLPFTFGGGTKVEIK
# notes: Parental monoclonal anti-PD-1 antibody
# B2: BMS20H4.9 (antibody, V domains shown)
# VH: QVQLQQWGAGLLKPSETLSLTCAVYGGSFSGYYWSWIRQSPEKGLEWIGEINHGGYVTYNPSLESRVTISVDTSKNQFSLKLSSVTAADTAVYYCARDYGPGNYDWYFDLWGRGTLVTVSS
# VL: EIVLTQSPATLSLSPGERATLSCRASQSVSSYLAWYQQKPGQAPRLLIYDASNRATGIPARFSGSGSGTDFTLTISSLEPEDFAVYYCQQRSNWPPALTFGGGTKVEIKR
# B3: Antibody p-7A5 (the parental antibody of the anti-CD137 arm of Antibody A) (antibody, V domains shown)
# VH: QVQLVQSGAEVKKPGSSVKVSCKASGGTFSSYAISWVRQAPGQGLEWMGGIIPIFGTANYAQKFQGRVTITADESTSTAYMELSSLRSEDTAVYYCARDLMTTAPGTYFDLWGRGTLVTVSS
# VL: AIRMTQSPPSLSASVGDRVTITCQASQDIGNSLGWYQQKPGKAPKLVIFDASDLETGVPSRFSGSGSGTDFSLTISSLQPEDFATYYCQQGNSFPLTFGQGTRLEIK
# notes: Parental monoclonal anti-CD137 antibody; also called Antibody 7A5; parental antibody 7A5
# How the values were obtained:
# human PD-1 (on cells) [1] = target: T1, human PD-1 (on cells) (human, UniProt Q15116 25-288); assay: cell-based or functional assay
# human PD-1 (on cells) [2] = target: T1, human PD-1 (on cells); assay: cell-based or functional assay; remark: listed apart in the source
# [3] = target: T2, human PD-1-extracellular domain (ECD) (human, UniProt Q15116 25-170); assay: SPR (Biacore 2000) at 37 C, antibody captured on Protein A, soluble PD-1-ECD as analyte, 1:1 Langmuir fit, mean ± SD
# T2 construct: also called human PD-1-ECD; PD-1-ECD
# Experimental: Samples are diluted in HBS-EP+(10 mM HEPES, 150 mM NaCl, 0.05% Tween-20, pH 7.6) running buffer (Teknova Cat #H8022). Protein A (5 mg/mL, Calbiochem Cat #539202) is immobilized on flow cells 1 to 4 of a CM5 senor chip (GE Healthcare Cat #29149604) at a level of 3000 to 4000 response units (RUs) using amine coupling chemistry. Briefly, the surfaces of all four flow cells are activated by injecting a 1:1 mixture of EDC/NHS for 7-minutes at 10 μL/minute. Protein A is diluted to 200 μg/mL in 10 mM acetate, pH 4.5 buffer and immobilized for approximately 3000-4000 RUs onto all four flow cells by 7-minute injection at flow rate of 10 μL/minute. Unreacted sites are blocked with a 7-minute injection of 1M Ethanolamine-HCl pH 8.5 at 10 μL/minute. Five 30-second injections of glycine pH 1.5 at 10 μL/minute are used to remove any non-covalently associated protein.
# Binding is evaluated using multi-cycle kinetics by an antibody capture method. […] All analyte concentrations are determined utilizing monomeric molecular weight (MW) values. Association rates (kₒₙ) and dissociation rates (koff) for PD-1-ECD are evaluated using double referencing by flow-cell 1 reference subtraction in addition to 0 nM blank subtraction and fit to “1:1 (Langmuir) binding” model in the BIAevaluation software version 4.1. […]
# [4] = target: T3, human CD137-ECD-C121S-Fc mutant D63N (human, UniProt Q07011 24-186); assay: point ELISA on coated CD137-Fc mutant, mean of normalised absorbance over eight concentrations
# T3 construct: Mutant of human CD137-ECD-C121S-Fc; not shown: Fc part
# Description: (§1) The CD137-Fc mutants are generated using the standard protocol of a commercially-available site directed mutagenesis kit (Quickchange II kit, […]). The wild-type and mutant CD137-Fc proteins are expressed and purified. […] To determine the impact of a mutation on the binding of the antibodies, a point ELISA assay against CD137-Fc wild type and mutants is utilized. The wells of a 96-well Immulon 4HBX ELISA plate are coated overnight with 50 nanograms of human CD137-ECD-C121S-Fc or its mutants in 100 microliters of PBS, pH 7.2 with mild agitation at 4° C. After blocking (with 5% BSA in PBST) and washing, a five-fold dilution eight-point series (100 to 0.00128 nanomolar) of the designated antibody is added and incubated with mild agitation at room temperature for 1 h. The wells are washed and a HRP-conjugated secondary antibody (1:10000 dilution of HRP-conjugated goat anti-Fab antibody (Jackson ImmunoResearch Laboratories) is added and incubated at room temperature following standard protocol. TMB peroxidase chromogenic substrate and stop solution are used according to manufacturer's instruction for visualization and detection of signals. Absorbance readings for each concentration point is normalized by the absorbance of the wild-type interaction. For each mutant, the mean of the normalized ratio for the eight concentrations is determined.
# [5] = target: T4, human CD137-ECD-C121S-Fc mutant Q67R (human, UniProt Q07011 24-186); assay: as above
# T4 construct: Mutant of human CD137-ECD-C121S-Fc; not shown: Fc part
# Description: as §1
# [6] = target: T5, human CD137-ECD-C121S-Fc mutant Q67V (human, UniProt Q07011 24-186); assay: as above
# T5 construct: Mutant of human CD137-ECD-C121S-Fc; not shown: Fc part
# Description: as §1
# [7] = target: T6, human CD137-ECD-C121S-Fc mutant A97P (human, UniProt Q07011 24-186); assay: as above
# T6 construct: Mutant of human CD137-ECD-C121S-Fc; not shown: Fc part
# Description: as §1
# [8] = target: T7, human CD137-ECD-C121S-Fc mutant G98K (human, UniProt Q07011 24-186); assay: as above
# T7 construct: Mutant of human CD137-ECD-C121S-Fc; not shown: Fc part
# Description: as §1
# [9] = target: T8, human CD137-ECD-C121S-Fc mutant G98Q (human, UniProt Q07011 24-186); assay: as above
# T8 construct: Mutant of human CD137-ECD-C121S-Fc; not shown: Fc part
# Description: as §1
# [10] = target: T9, human CD137-ECD-C121S-Fc mutant S100T (human, UniProt Q07011 24-186); assay: as above
# T9 construct: Mutant of human CD137-ECD-C121S-Fc; not shown: Fc part
# Description: as §1
# [11] = target: T10, human CD137-ECD-C121S-Fc mutant M101R (human, UniProt Q07011 24-186); assay: as above
# T10 construct: Mutant of human CD137-ECD-C121S-Fc; not shown: Fc part
# Description: as §1
# [12] = target: T11, human CD137-ECD-C121S-Fc mutant Q104K (human, UniProt Q07011 24-186); assay: as above
# T11 construct: Mutant of human CD137-ECD-C121S-Fc; not shown: Fc part
# Description: as §1
# [13] = target: T12, human CD137-ECD-C121S-Fc mutant K114E (human, UniProt Q07011 24-186); assay: as above
# T12 construct: Mutant of human CD137-ECD-C121S-Fc; not shown: Fc part
# Description: as §1
# [14] = target: T13, human CD137-ECD-C121S-Fc mutant K115Q (human, UniProt Q07011 24-186); assay: as above
# T13 construct: Mutant of human CD137-ECD-C121S-Fc; not shown: Fc part
# Description: as §1
# [15] = target: T14, human CD137-ECD-C121S-Fc mutant P27L (human, UniProt Q07011 24-186); assay: as above
# T14 construct: Mutant of human CD137-ECD-C121S-Fc; not shown: Fc part
# Description: as §1
# human CD137 (on cells) = human CD137 (on cells) (human, UniProt Q07011 24-255); assay: cell-based or functional assay
# [16] = target: T15, human CD137-ECD-C121S-Fc mutant N42S (human, UniProt Q07011 24-186); assay: point ELISA on coated CD137-Fc mutant, mean of normalised absorbance over eight concentrations
# T15 construct: Mutant of human CD137-ECD-C121S-Fc; not shown: Fc part
# Description: as §1
# human CD137-ECD = target: T16, human CD137-ECD (human, UniProt Q07011 24-186); assay: SPR (Biacore 2000) at 37 C, antibody captured on Protein A, soluble CD137-ECD as analyte, steady state affinity fit
# T16 construct: In-house generated soluble ECD
# T16 sequence (Q07011 24-186 limits assumed): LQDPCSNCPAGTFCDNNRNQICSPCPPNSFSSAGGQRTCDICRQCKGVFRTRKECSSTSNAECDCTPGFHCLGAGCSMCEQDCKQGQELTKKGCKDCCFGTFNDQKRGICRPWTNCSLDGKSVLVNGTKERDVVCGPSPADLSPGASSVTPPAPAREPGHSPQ
# T1 sequence (Q15116 25-288 limits assumed): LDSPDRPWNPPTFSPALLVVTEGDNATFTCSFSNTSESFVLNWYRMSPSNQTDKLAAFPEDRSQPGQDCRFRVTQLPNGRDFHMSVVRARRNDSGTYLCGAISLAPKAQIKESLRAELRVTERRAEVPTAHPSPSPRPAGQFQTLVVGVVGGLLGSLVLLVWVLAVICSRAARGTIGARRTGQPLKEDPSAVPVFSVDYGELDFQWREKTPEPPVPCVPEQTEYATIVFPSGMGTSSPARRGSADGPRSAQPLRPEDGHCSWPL
# Sequence of human CD137 (on cells) (Q07011 24-255 limits assumed): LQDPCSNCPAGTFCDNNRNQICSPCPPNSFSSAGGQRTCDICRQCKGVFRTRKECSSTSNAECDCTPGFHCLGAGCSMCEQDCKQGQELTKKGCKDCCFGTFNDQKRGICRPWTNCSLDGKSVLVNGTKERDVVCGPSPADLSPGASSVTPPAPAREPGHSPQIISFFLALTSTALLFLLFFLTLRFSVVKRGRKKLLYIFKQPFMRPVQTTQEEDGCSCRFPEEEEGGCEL
# T8 sequence (Q07011 24-186 G98Q/C121S): as the sequence (Q07011 24-186 limits assumed) above, with G75Q, C98S counted along it
# T4 sequence (Q07011 24-186 Q67R/C121S): as the sequence (Q07011 24-186 limits assumed) above, with Q44R, C98S counted along it
# T10 sequence (Q07011 24-186 M101R/C121S): as the sequence (Q07011 24-186 limits assumed) above, with M78R, C98S counted along it
# T14 sequence (Q07011 24-186 P27L/C121S): as the sequence (Q07011 24-186 limits assumed) above, with P4L, C98S counted along it
# T11 sequence (Q07011 24-186 Q104K/C121S): as the sequence (Q07011 24-186 limits assumed) above, with Q81K, C98S counted along it
# T12 sequence (Q07011 24-186 K114E/C121S): as the sequence (Q07011 24-186 limits assumed) above, with K91E, C98S counted along it
# T6 sequence (Q07011 24-186 A97P/C121S): as the sequence (Q07011 24-186 limits assumed) above, with A74P, C98S counted along it
# T13 sequence (Q07011 24-186 K115Q/C121S): as the sequence (Q07011 24-186 limits assumed) above, with K92Q, C98S counted along it
# T7 sequence (Q07011 24-186 G98K/C121S): as the sequence (Q07011 24-186 limits assumed) above, with G75K, C98S counted along it
# T5 sequence (Q07011 24-186 Q67V/C121S): as the sequence (Q07011 24-186 limits assumed) above, with Q44V, C98S counted along it
# T3 sequence (Q07011 24-186 D63N/C121S): as the sequence (Q07011 24-186 limits assumed) above, with D40N, C98S counted along it
# T9 sequence (Q07011 24-186 S100T/C121S): as the sequence (Q07011 24-186 limits assumed) above, with S77T, C98S counted along it
# T15 sequence (Q07011 24-186 N42S/C121S): as the sequence (Q07011 24-186 limits assumed) above, with N19S, C98S counted along it
# T2 sequence (Q15116 25-170 limits assumed): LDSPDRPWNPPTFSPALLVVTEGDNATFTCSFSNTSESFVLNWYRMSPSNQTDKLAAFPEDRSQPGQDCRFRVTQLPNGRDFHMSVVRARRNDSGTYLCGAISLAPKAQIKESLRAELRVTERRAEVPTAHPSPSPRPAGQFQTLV
Binder,IFN-γ mean EC50 in allogeneic MLR assay (3 donor pairs) (human PD-1 (on cells) [2]),IL-2 mean EC50 in allogeneic MLR assay (3 donor pairs) (human PD-1 (on cells) [2]) [nM],% of binding relative to wild-type hCD137 [4] [%],% of binding relative to wild-type hCD137 [5] [%],% of binding relative to wild-type hCD137 [6] [%],% of binding relative to wild-type hCD137 [7] [%],% of binding relative to wild-type hCD137 [8] [%],% of binding relative to wild-type hCD137 [9] [%],% of binding relative to wild-type hCD137 [10] [%],% of binding relative to wild-type hCD137 [11] [%],% of binding relative to wild-type hCD137 [12] [%],% of binding relative to wild-type hCD137 [13] [%],% of binding relative to wild-type hCD137 [14] [%],% of binding relative to wild-type hCD137 [15] [%],other results
B1,88 pM,0.238,,,,,,,,,,,,,"EC50, NFAT-Luc reporter assay (Jurkat PD-1+CD137+NFAT-Luc2 cells with CHO-K1 PD-L1+TCR activator cells) (human PD-1 (on cells) [1]): 1.4 nM; Kd [3]: 3.1 nM"
B2,,,100,100,100,100,100,100,100,100,100,100,100,85,
B3,> 32 nM,> 32,100,100,100,15,85,100,100,100,100,20,25,100,fold induction of NFkB-Luc luciferase signal at 0.01 nM antibody (human CD137 (on cells)): 0.98 fold; fold induction of NFkB-Luc luciferase signal at 0.04 nM antibody (human CD137 (on cells)): 0.88 fold; fold induction of NFkB-Luc luciferase signal at 0.15 nM antibody (human CD137 (on cells)): 0.94 fold; fold induction of NFkB-Luc luciferase signal at 0.59 nM antibody (human CD137 (on cells)): 1.07 fold; fold induction of NFkB-Luc luciferase signal at 2.34 nM antibody (human CD137 (on cells)): 1.66 fold; fold induction of NFkB-Luc luciferase signal at 9.38 nM antibody (human CD137 (on cells)): 2.29 fold; fold induction of NFkB-Luc luciferase signal at 37.50 nM antibody (human CD137 (on cells)): 2.72 fold; fold induction of NFkB-Luc luciferase signal at 150.00 nM antibody (human CD137 (on cells)): 2.6 fold; % of binding relative to wild-type hCD137 [16]: 100%; Kd (human CD137-ECD): 341 nM
